Assay results from article PMC11079029, “Intramolecular autoinhibition regulates the selectivity of PRPF40A tandem WW domains for proline-rich motifs” (Nature Communications, 2024).

B1: SF3A1 C-ter Pro: GB1-tagged SF3A1 construct, residues 552–683 (protein)
chain: EIPQQPPPPSSATNIPSSAPPITSVPRPPTMPPPVRTTVVSAVPVMPRPPMASVVRLPPGSVIAPMPPIIHAPRINVVPMPPSAPPIMAPRPPPMIVPTAFVPAPPVAPVPAPAPMPPVHPPPPMEDEPTSK
modifications: left off: His6, N-terminal, state not stated | GB1, N-terminal, kept
B2: SF1 Pro ABCD: GB1-tagged SF1 construct, residues 410–639 (protein)
chain: GHPMQHNPNGPPPPWMQPPPPPMNQGPHPPGHHGPPPMDQYLGSTPVGSGVYRLHQGKGMMPPPPMGMMPPPPPPPSGQPPPPPSGPLPPWQQQQQQPPPPPPPSSSMASSTPLPWQQNTTTTTTSAGTGSIPPWQQQQAAAAASPGAPQMQGNPTMVPLPPGVQPPLPPGAPPPPPPPPPGSAGMMYAPPPPPPPPMDPSNFVTMMGMGVAGMPPFGMPPAPPPPPPQN
modifications: left off: His6, N-terminal, state not stated | GB1, N-terminal, kept
B3: SF1 Pro BC: GB1-tagged SF1 construct, residues 468–594 (protein)
chain: GMMPPPPMGMMPPPPPPPSGQPPPPPSGPLPPWQQQQQQPPPPPPPSSSMASSTPLPWQQNTTTTTTSAGTGSIPPWQQQQAAAAASPGAPQMQGNPTMVPLPPGVQPPLPPGAPPPPPPPPPGSAG
modifications: left off: His6, N-terminal, state not stated | GB1, N-terminal, kept
B4: SF1 Pro CD: GB1-tagged SF1 construct, residues 539–639 (protein)
chain: GSIPPWQQQQAAAAASPGAPQMQGNPTMVPLPPGVQPPLPPGAPPPPPPPPPGSAGMMYAPPPPPPPPMDPSNFVTMMGMGVAGMPPFGMPPAPPPPPPQN
modifications: left off: His6, N-terminal, state not stated | GB1, N-terminal, kept
B5: SF1 Pro B: GB1-tagged SF1 construct, residues 468–539 (protein)
chain: GMMPPPPMGMMPPPPPPPSGQPPPPPSGPLPPWQQQQQQPPPPPPPSSSMASSTPLPWQQNTTTTTTSAGTG
modifications: left off: His6, N-terminal, state not stated | GB1, N-terminal, kept
B6: SF1 Pro BCD: GB1-tagged SF1 construct, residues 468–639 (protein)
chain: GMMPPPPMGMMPPPPPPPSGQPPPPPSGPLPPWQQQQQQPPPPPPPSSSMASSTPLPWQQNTTTTTTSAGTGSIPPWQQQQAAAAASPGAPQMQGNPTMVPLPPGVQPPLPPGAPPPPPPPPPGSAGMMYAPPPPPPPPMDPSNFVTMMGMGVAGMPPFGMPPAPPPPPPQN
modifications: left off: His6, N-terminal, state not stated | GB1, N-terminal, kept

What follows are molecules tested against T1, PRPF40A WW12 (tandem WW domains, residues 141–236) (Homo sapiens, UniProt O75400) (assay: ITC of PRPF40A WW12 with GB1-tagged proline-rich peptides and constructs). Conditions: ITC binding enthalpy, as E4.
T1 construct: WW12 141–236, WW12long 141–248, and N-ext-WW12 56–236; 6xHis-TEV site (N, cleaved yes); made in house; host or cells: Escherichia coli BL21(DE3)
T1 sequence (O75400 141-236): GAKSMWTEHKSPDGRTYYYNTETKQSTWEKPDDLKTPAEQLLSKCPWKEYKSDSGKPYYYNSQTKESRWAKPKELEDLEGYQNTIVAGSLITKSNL
Type: binding
Text: PRPF40A isoform 1 sequences (N-ter 1–310, WW12short 141–223, WW12 141–236, WW12long 141–248, and N-ext-WW12 56–236) were amplified from a purchased DNA fragment (IDT) and cloned using NcoI and KpnI restriction sites into a pETM11 vector encoding 6xHis and TEV cleavage site as a N-terminal tag. SF1 (Pro A 410–468, Pro B 468–539, Pro C 539–594, Pro D 594–639, Pro BC 468–594, Pro CD 539–639, Pro BCD 468–639 and Pro ABCD 410–639) and SF3A1 (Middle Pro 364–413 and C-ter Pro 552–683) constructs were prepared in a similar manner using a pET24 vector with a 6xHis, GB1 and TEV cleavage site as N-terminal fusion cassette. 16-mer SF1 constructs (Table 1) and polyproline peptides (P6, P8, P10, P13, P16, P19, P22, P25, and P29) were cloned in the same pET24 vector with GB1 tag by direct ligation of purchased oligonucleotides (Eurofins). All peptide sequences contained N and C-terminal common residues to avoid boundary effects on binding: TEVsite-GAMSGS-peptide-SGSN. Mutants of PRPF40A WW12 and N-ext-WW12 constructs were prepared by site-directed mutagenesis. The truncated version of PRPF40A WW12 (141-217) was a gift from Dr. María Macías (IRB, Spain). All used oligonucleotides were purchased from Eurofins Genomics and are shown in Supplementary Table 6.
Resuspended cell pellets in 20 mM Tris pH 8.0, 500 mM NaCl, 10 mM imidazole, 0.5 mM TCEP, and protease inhibitors mix (SERVA) were lysed by cell disruption in a French press. Clear lysates, after centrifugation (at 18,000 g) and filtering, were loaded into Ni-NTA resin. The resin was then washed with 20 mM imidazole containing buffer, and the desired protein was eluted with 500 mM imidazole. PRPF40A constructs were then subjected to TEV protease treatment (homemade at a final concentration of ≈50 μg/ml), dialyzed overnight at 4 °C against an imidazole-free buffer, and then loaded again to Ni-NTA resin; desired digested proteins were obtained in the flow-through and wash fractions while uncleaved protein, TEV protease, and impurities remained bound to the resin. Cleaved PRPF40A proteins and GB1-tagged SF1, SF3A1, and polyproline constructs were further purified by size-exclusion chromatography on a HiLoad 16/60 Superdex 75 column (GE Healthcare) equilibrated with 20 mM sodium phosphate, pH 6.5, 100 mM NaCl and 1 mM DTT buffer. For the purification of PRPF40A WW12 in complex with SF1 peptide, cell pellets of recombinant expression for both proteins were mixed and processed together following the Ni-NTA—TEV digestion—reverse Ni-NTA—SEC-75 protocol; where the complex remained bound in a 1:1 stoichiometry throughout the whole purification (corroborated by NMR). Molecular weight of each sample was confirmed by mass spectrometry, purity was checked by PAGE-SDS, and protein concentrations were determined from the aromatic contribution to the UV absorbance spectra at 280 nm.
Experiments were conducted on a MicroCAl PEAQ-ITC (Malvern Instruments, UK) at 25 °C in 20 mM sodium phosphate pH 6.5 and 100 mM NaCl. PRPF40A was titrated into N-terminal GB1 tagged SF1 or polyproline constructs and vice versa with similar results. Protein concentrations in the cell were around 20–40 μM, while in the syringe ranged between 200 and 500 μM. Experiments were performed at least in duplicate with injections of 1.5 μL (0.4 μL for first point) separated by 150 s delays to recover thermal power baseline and continuous stirring in the cell (750 rpm) for correct mixing. The reference cell was filled with water in all experiments. Data were processed by removing the blank experiment (using digested GB1 fusion protein) and adjusted to one-site binding model with Malvern PEAQ-ITC Analysis software (Malvern Instruments, UK).
In the case of B1, the “DH” value is reported as -68.83 ± 18.8 kcal/mol. For B2, the “DH” value was -67.04 ± 9.68 kcal/mol. B3 was tested, and the “DH” value was -28.99 ± 1.65 kcal/mol. B4 was tested, and the “DH” value was -46.2 ± 3.11 kcal/mol. In the case of B5, the “DH” value is reported as -17.3 ± 3.27 kcal/mol. With B6 the “DH” value was -65.49 ± 8.6 kcal/mol.

Same assay, conditions: source data of Fig. 4C,D; ITC as E4; individual value 1; read-out: Kd (mM), Individual values
In the case of B1, the Kd is reported as 0.0238 mM. With B2 the Kd was 0.00541 mM. For B3, the Kd was 0.00363 mM. Molecule B4 has a Kd of 0.00283 mM. Molecule B6 has a Kd of 0.00293 mM.

Same assay, conditions: source data of Fig. 4C,D; ITC as E4; individual value 2; read-out: Kd (mM), Individual values
B1 showed a Kd of 0.0148 mM. Molecule B2 has a Kd of 0.0044 mM. B3 gave a Kd of 0.00776 mM. In the case of B4, the Kd is reported as 0.00432 mM. B6 gave a Kd of 0.00436 mM.

Same assay, conditions: source data of Fig. 4C; ITC as E4; individual value 3; read-out: Kd (mM), Individual values
Molecule B3 has a Kd of 0.00911 mM. B4 was tested, and the Kd was 0.00426 mM.
